Consider two molecules from US20220275095A1 (SURROZEN OPERATING, published 2022).

One assay has as its target T1, mouse Fzd1 hinge region (mouse, UniProt O70421 222-271, limits assumed).
T1 construct: domain: hinge region; also called mFzd1L
T1 peptide (looked up): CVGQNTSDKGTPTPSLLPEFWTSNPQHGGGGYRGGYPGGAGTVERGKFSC
Put plainly: SPR; **** = 10 nM > KD. The procedure:
(§1) Certain VL and VH clones from Table 1 were PCR amplified from the phage clone and sub-cloned into pcDNA3.1 based mammalian expression vectors (Invitrogen/ThermoFisher) of human kappa or lambda light chain and human IgG1 heavy chain, respectively. Candidate IgGs were purified using Protein A affinity resin. The candidate library was captured on an anti-FC lawn. The capture lawn was prepared by direct amine coupling goat anti-human IgG Fc (Southern Biotech #2048-01) at 8000 RU on a HC200M Carterra sensor chip (Carterra 4297). Capture levels were at least 600 RU for each candidate IgG. Binding to all target peptides was measured at 25° by injecting a concentration series of each peptide in 1×PBST+0.5 mg/mL BSA (TEKnova P1192, VWR V0332). All peptides were injected at 4.12 nM, 12.3 nM, 37 nM, 111 nM, 333 nM, and 1000 nM. Two blank injections were run between each peptide concentration series. Each injection started with a one minute baseline determination, followed by a five minute association phase where peptides were injected, and finished with a 10 minute dissociation phase. Binding data was analyzed using NextGenKIT (Carterra). Blank injections and reference locations were subtracted from all runs prior to fitting a 1:1 binding model to the data. […] Interactions with an Rₘₐₓ less than 15 RU or weaker than 5 μM were considered non-binders.

A further assay concerns the target T2, human Fzd1 hinge region (human).
T2 construct: also called hFzd1L
T2 peptide: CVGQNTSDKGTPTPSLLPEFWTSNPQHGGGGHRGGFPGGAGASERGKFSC
Put plainly: SPR; **** = 10 nM > KD. As to the method: as §1
In general terms: In SPR one partner is held on a chip, and binding of the other changes the refractive index at the surface.

The next assay addresses T3, mouse Fzd6 hinge region (mouse, UniProt Q61089 129-161, limits assumed).
T3 construct: domain: hinge region; also called mFzd6L
T3 peptide (looked up): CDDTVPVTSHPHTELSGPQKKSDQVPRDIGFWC
Put plainly: SPR. As to the method: as §1

The next assay has as its target T4, human Fzd4 hinge region (human).
T4 construct: also called hFzd4L
T4 peptide: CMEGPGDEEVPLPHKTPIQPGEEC
Kind of assay: SPR. As to the method: as §1

A further assay has as its target T5, mouse Fzd2 hinge region (mouse, UniProt Q9JIP6 155-206, limits assumed).
T5 construct: domain: hinge region; also called mFzd2L
Put plainly: SPR. As to the method: as §1

The target in the next assay is T6, mouse Fzd5 hinge region (mouse, UniProt Q9EQD0 147-182, limits assumed).
T6 construct: domain: hinge region; also called mFzd5L
T6 peptide (looked up): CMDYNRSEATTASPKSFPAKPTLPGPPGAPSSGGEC
Put plainly: SPR. As to the method: as §1

A further assay concerns the target T7, human Fzd10 hinge region (human).
T7 construct: also called hFzd10L
T7 peptide: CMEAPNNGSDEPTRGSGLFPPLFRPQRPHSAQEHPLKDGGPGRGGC
Kind of assay: SPR. As to the method: as §1

The target in assay [1] is T8, human Fzd2 hinge region (human).
T8 construct: also called hFzd2L
T8 peptide: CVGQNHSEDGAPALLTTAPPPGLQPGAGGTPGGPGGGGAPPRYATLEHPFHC
Put plainly: SPR. The procedure: as §1

The next assay concerns the target T9, mouse Fzd10 hinge region (mouse, UniProt Q8BKG4 148-193, limits assumed).
T9 construct: domain: hinge region; also called mFzd10L
T9 peptide (looked up): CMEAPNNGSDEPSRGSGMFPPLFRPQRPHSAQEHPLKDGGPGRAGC
Put plainly: SPR. The procedure:
as §1

A further assay addresses T10, human Fzd3 hinge region (human).
T10 construct: also called hFzd3L
T10 peptide: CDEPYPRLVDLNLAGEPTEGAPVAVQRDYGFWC
Kind of assay: SPR. As to the method: as §1

For a further assay, the target named is T11, mouse Fzd9 hinge region (mouse, UniProt Q9R216 153-197, limits assumed).
T11 construct: domain: hinge region; also called mFzd9
T11 peptide (looked up): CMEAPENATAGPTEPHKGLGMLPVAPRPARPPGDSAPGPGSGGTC
Kind of assay: SPR. As to the method: as §1

In another assay the target is T12, mouse Fzd4 hinge region (mouse, UniProt Q61088 158-181, limits assumed).
T12 construct: domain: hinge region; also called mFzd4L
T12 peptide (looked up): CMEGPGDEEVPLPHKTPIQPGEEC
Put plainly: SPR. The procedure: as §1

Another assay addresses T13, mouse Fzd3 hinge region (mouse, UniProt Q61086 133-165, limits assumed).
T13 construct: domain: hinge region; also called mFzd3L
T13 peptide (looked up): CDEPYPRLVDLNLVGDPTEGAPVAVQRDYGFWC
Kind of assay: SPR. As to the method:
as §1

In another assay the target is T14, mouse Fzd8 hinge region (mouse, UniProt Q61091 148-225, limits assumed).
T14 construct: domain: hinge region; also called mFzd8L; mFzd8
T14 sequence (peptide, looked up): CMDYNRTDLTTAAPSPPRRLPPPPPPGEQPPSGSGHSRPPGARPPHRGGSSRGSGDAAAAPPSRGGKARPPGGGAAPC
Put plainly: SPR. The procedure:
as §1

The target in a further assay is T15, human Fzd6 hinge region (human).
T15 construct: also called hFzd6L
T15 peptide: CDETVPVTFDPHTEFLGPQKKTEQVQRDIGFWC
Put plainly: SPR. The procedure: as §1

For the next assay, the target named is T16, mouse Fzd7 hinge region (mouse, UniProt Q61090 160-208, limits assumed).
T16 construct: domain: hinge region; also called mFzd7L
T16 peptide (looked up): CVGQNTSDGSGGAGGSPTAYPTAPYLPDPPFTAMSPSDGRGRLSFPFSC
Kind of assay: SPR. As to the method:
as §1

The target of the next assay is T17, human Fzd5 hinge region (human).
T17 construct: also called hFzd5L
T17 peptide: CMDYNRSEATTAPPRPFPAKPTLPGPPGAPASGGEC
Put plainly: SPR. As to the method:
as §1

In the next assay the target is T18, human Fzd9 hinge region (human).
T18 construct: also called hFzd9L; hFzd9
T18 peptide: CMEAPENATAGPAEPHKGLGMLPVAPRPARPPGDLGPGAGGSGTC
Put plainly: SPR. The procedure: as §1

The target of assay [2] is T19, human Fzd2 hinge region (human, UniProt Q14332 150-201).
T19 construct: also called hFzd2L; 2L
Put plainly: phage ELISA. For orientation: ELISA stands for enzyme-linked immunosorbent assay.

Usually KD stands for the free concentration of one partner at which half of the binding sites on the other are occupied at equilibrium, for simple one-to-one binding. High values mean weaker binding, low ones tighter binding.

B1: 033S-B03 (antibody, V domains shown)
VH: QVQLVQSGAEVKKPGSSVKVSCKASGYTFTGQYMHWVRQAPGQGLEWMGGIIPIFGTAHYPQKFQGRVTITADESTSTAYMELSSLRSEDTAVYYCARRSVAAGTPFTDYWGQGTLVTVSS
VL: not shown
notes: human IgG1, human kappa or lambda light chain; also called 33SB3
Regarding B1, the equilibrium dissociation constant (KD) with mouse Fzd1 hinge region and with human Fzd1 hinge region was under 10 nM in each case. The binding result with mouse Fzd6 hinge region, with human Fzd4 hinge region, in the assay with mouse Fzd2 hinge region, with mouse Fzd5 hinge region, in the assay with human Fzd10 hinge region and with human Fzd2 hinge region [1] was “no binding (tested: 5 uM)” throughout. The binding result in the assay with mouse Fzd10 hinge region, in the assay with human Fzd3 hinge region, with mouse Fzd9 hinge region, with mouse Fzd4 hinge region, in the assay with mouse Fzd3 hinge region and with mouse Fzd8 hinge region was “no binding (tested: 5 uM)” throughout. Further, the binding result in the assay with human Fzd6 hinge region, with mouse Fzd7 hinge region, with human Fzd5 hinge region and in the assay with human Fzd9 hinge region was “no binding (tested: 5 uM)” in each case.

B2: 031S-B02 (antibody, V domains shown)
VH: EVQLLESGGGLVQPGGSLRLSCAASGFTFSSYWMSWVRQAPGKGLEWVSAIGGSGANAYYADSVKGRFTISRDNSKNTLYLQMNSLRAEDTAVYYCVRDTNWAFDLWGQGTMVTVSS
VL: EIVMTQSPATLSVSPGERATLSCRASQSVSGSYLAWYQQKPGQAPRLLIYGASTRATGIPARFSGSGSGTEFTLTISSLQSEDFAVYYCQQYGSSPLTFGQGTKVEIK
notes: also called 31SB2
B2: in the assay with human Fzd2 hinge region [2], the binding result is “binds”.
